Assay results published in article PMC6028238.

Assays:
[1] = target: protein H on the surface of S. pyogenes AP1 bacteria (Streptococcus pyogenes (endogenous in strain AP1)); experiment: electron microscopy with gold-labelled protein
[2] = target: human C4b-binding protein (C4BP), purified from plasma (human) (UniProt P04003); experiment: negative-stain electron microscopy
[3] = target: protein H on the surface of S. pyogenes AP1 bacteria (Streptococcus pyogenes (endogenous in strain AP1)); experiment: flow cytometry on cells

## human C4b-binding protein (C4BP), purified from plasma (from UniProt P04003 49-597; P20851 18-252) (complex)
[1]
  gold particles of C4BP bound to the surface, with IgG (gold particles/mm^2): 917
  gold particles of C4BP bound to the surface, without IgG (gold particles/mm^2): 82

## protein H (Streptococcus pyogenes), recombinant (natural protein)
[2]
  percent of C4BP molecules complexed with protein H, with IgG: 83%
  percent of C4BP molecules complexed with protein H, without IgG: 7%

B1: human C4BP in serum of human C4BP transgenic mice (natural protein)
chain: NCGPPPTLSFAAPMDITLTETRFKTGTTLKYTCLPGYVRSHSTQTLTCNSDGEWVYNTFCIYKRCRHPGELRNGQVEIKTDLSFGSQIEFSCSEGFFLIGSTTSRCEVQDRGVGWSHPLPQCEIVKCKPPPDIRNGRHSGEENFYAYGFSVTYSCDPRFSLLGHASISCTVENETIGVWRPSPPTCEKITCRKPDVSHGEMVSGFGPIYNYKDTIVFKCQKGFVLRGSSVIHCDADSKWNPSPPACEPNSCINLPDIPHASWETYPRPTKEDVYVVGTVLRYRCHPGYKPTTDEPTTVICQKNLRWTPYQGCEALCCPEPKLNNGEITQHRKSRPANHCVYFYGDEISFSCHETSRFSAICQGDGTWSPRTPSCGDICNFPPKIAHGHYKQSSSYSFFKEEIIYECDKGYILVGQAKLSCSYSHWSAPAPQCKALCRKPELVNGRLSVDKDQYVEPENVTIQCDSGYGVVGPQSITCSGNRTWYPEVPKCEWETPEGCEQVLTGKRLMQCLPNPEDVKMALEVYKLSLEIEQLELQRDSARQSTLDKEL
[3]
  C4BP binding without IgG at 30 °C, as percent of the binding with IVIG: 40%
  C4BP binding without IgG at 39 °C, as percent of the binding with IVIG: < 10%
  fold increase of binding with 1 mg/ml IVIG against no IVIG: 2 fold
